Source: patent US20200024322A1 (Eli Lilly, published 2020)
Numbered stars: 1 amine (or outer) side, 2 acyl side, 3 side chain; on linkers, the order of the positions; unused ones are H or OH. Square brackets hold non-standard residues; d marks the D form. Side chains are listed from the residue outwards. Ends that are not written are not given here. * marks the point of attachment. C20 diacid = O=C(O)CCCCCCCCCCCCCCCCCCC(=O)*; γGlu = O=C(O)[C@H](CCC(=O)[*:2])N[*:1]; αMeL = CC(C)C[C@](C)(N)C(=O)O; αMeK = C[C@](N)(CCCCN)C(=O)O; AEEA = NCCOCCOCC(=O)O; Aib = CC(C)(N)C(=O)O

T1: human GIP receptor (human, UniProt P48546 22-466)
T1 construct: whole, on cells; Used as crude membranes of stably transfected CHO cells; also called hGIPR
T1 sequence (looked up): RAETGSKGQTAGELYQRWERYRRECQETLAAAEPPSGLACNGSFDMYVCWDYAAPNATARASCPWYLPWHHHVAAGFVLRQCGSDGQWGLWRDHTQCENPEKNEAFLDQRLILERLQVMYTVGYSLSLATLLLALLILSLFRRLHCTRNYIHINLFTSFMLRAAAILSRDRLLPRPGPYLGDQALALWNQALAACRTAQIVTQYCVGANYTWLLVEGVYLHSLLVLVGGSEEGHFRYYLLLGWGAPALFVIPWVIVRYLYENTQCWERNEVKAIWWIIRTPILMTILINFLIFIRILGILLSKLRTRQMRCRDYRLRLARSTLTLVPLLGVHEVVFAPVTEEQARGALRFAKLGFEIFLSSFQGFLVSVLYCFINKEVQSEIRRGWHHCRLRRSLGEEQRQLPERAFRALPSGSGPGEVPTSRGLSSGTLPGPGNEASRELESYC

B1: Example 59 (peptide)
peptide: YXEGTFTSDYSIXLDEKAQXAFIEYLIEGGPSSGAPPPS
modifications: Aib2; αMeL13; K17((2-[2-(2-Amino-ethoxy)-ethoxy]-acetyl)2-(γ-Glu)-CO-(CH2)18-CO2H); Aib20; C-terminal NH2
B2: Example 68 (peptide)
peptide: YXEGTFTSDYXILLDKKAQXAFIEYLIEGGPSSGAPPPS
modifications: Aib2; αMeS11; K17((2-[2-(2-Amino-ethoxy)-ethoxy]-acetyl)2-(γ-Glu)-CO-(CH2)18-CO2H); Aib20; C-terminal NH2
B3: Example 67 (peptide)
peptide: YXEGTFTSDYSILLDKKAQXAXIEYLIEGGPSSGAPPPS
modifications: Aib2; K17((2-[2-(2-Amino-ethoxy)-ethoxy]-acetyl)2-(γ-Glu)-CO-(CH2)18-CO2H); Aib20; αMeF22; C-terminal NH2
B4: Example 57 (peptide)
peptide: YXEGTXTSDYSILLDKKAQXAFIEYLIEGGPSSGAPPPS
modifications: Aib2; αMeF6; K17((2-[2-(2-Amino-ethoxy)-ethoxy]-acetyl)2-(γ-Glu)-CO-(CH2)18-CO2H); Aib20; C-terminal NH2
B5: Example 115 (peptide)
peptide: YXEGTXTSDYSIXLDEKAQXAFIEYLIEGGPSSGAPPPS
modifications: Aib2; αMeF6; αMeL13; K17((2-[2-(2-Amino-ethoxy)-ethoxy]-acetyl)2-(γ-Glu)-CO-(CH2)18-CO2H); Aib20; C-terminal NH2
B6: Example 3 (peptide)
peptide: YXEGTXTSDYSIXLDXKAQXEFIXYLIEGGPSSGAPPPS
modifications: Aib2; αMeF(2F)6; αMeL13; Orn16; K17((2-[2-(2-Amino-ethoxy)-ethoxy]-acetyl)2-(γ-Glu)-CO-(CH2)18-CO2H); Aib20; D-Glu24; C-terminal NH2
B7: Example 60 (peptide)
peptide: YXEGTFTSDYSIXLDXKAQXAFIEYLIEGGPSSGAPPPS
modifications: Aib2; αMeL13; Aib16; K17((2-[2-(2-Amino-ethoxy)-ethoxy]-acetyl)2-(γ-Glu)-CO-(CH2)18-CO2H); Aib20; C-terminal NH2
B8: Example 128 (peptide)
peptide: YXEGTXTSDHSILLDKKAQXAFIEYLIEGGPSSGAPPPS
modifications: Aib2; αMeF6; K17((2-[2-(2-Amino-ethoxy)-ethoxy]-acetyl)2-(γ-Glu)-CO-(CH2)18-CO2H); Aib20; C-terminal NH2
B9: Example 129 (peptide)
peptide: YXEGTXTSDLSILLDKKAQXAFIEYLIEGGPSSGAPPPS
modifications: Aib2; αMeF6; K17((2-[2-(2-Amino-ethoxy)-ethoxy]-acetyl)2-(γ-Glu)-CO-(CH2)18-CO2H); Aib20; C-terminal NH2
B10: Example 20 (peptide)
peptide: YXEGTFTSDYSIXLDKKAQXAFIEYLIEGGPSSGAPPPS
modifications: Aib2; αMeL13; K17((2-[2-(2-Amino-ethoxy)-ethoxy]-acetyl)2-(γ-Glu)-CO-(CH2)18-CO2H); Aib20; C-terminal NH2
B11: Example 127 (peptide)
peptide: YXEGTXTSDISILLDKKAQXAFIEYLIEGGPSSGAPPPS
modifications: Aib2; αMeF6; K17((2-[2-(2-Amino-ethoxy)-ethoxy]-acetyl)2-(γ-Glu)-CO-(CH2)18-CO2H); Aib20; C-terminal NH2
B12: Example 61 (peptide)
peptide: YXEGTFTSDYSIXLDSKAQXAFIEYLLEGGPSSGAPPPS
modifications: Aib2; αMeL13; K17((2-[2-(2-Amino-ethoxy)-ethoxy]-acetyl)2-(γ-Glu)-CO-(CH2)18-CO2H); Aib20; C-terminal NH2
B13: Example 66 (peptide)
peptide: YXEGTFTSDYSIXLDEKAQXAFIEYLLEGGPSSGAPPPS
modifications: Aib2; αMeL13; K17((2-[2-(2-Amino-ethoxy)-ethoxy]-acetyl)2-(γ-Glu)-CO-(CH2)18-CO2H); Aib20; C-terminal NH2
B14: Example 53 (peptide)
peptide: HXEGTFTSDYSIXLDKKAQXAFIEYLIEGGPSSGAPPPS
modifications: Aib2; αMeL13; K17((2-[2-(2-Amino-ethoxy)-ethoxy]-acetyl)2-(γ-Glu)-CO-(CH2)18-CO2H); Aib20; C-terminal NH2
B15: Example 21 (peptide)
peptide: Y[Aib]EGTFTSDYSI[αMeL]LDEK([AEEA-AEEA-γGlu-C20 diacid])AQ[αMeK]AFIEYLLEGGPSSGAPPPS-NH2
modifications: N-terminus assumed
SMILES: CC[C@H](C)[C@H](NC(=O)[C@H](Cc1ccccc1)NC(=O)[C@H](C)NC(=O)[C@](C)(CCCCN)NC(=O)[C@H](CCC(N)=O)NC(=O)[C@H](C)NC(=O)[C@H](CCCCNC(=O)COCCOCCNC(=O)COCCOCCNC(=O)CC[C@H](NC(=O)CCCCCCCCCCCCCCCCCCC(=O)O)C(=O)O)NC(=O)[C@H](CCC(=O)O)NC(=O)[C@H](CC(=O)O)NC(=O)[C@H](CC(C)C)NC(=O)[C@](C)(CC(C)C)NC(=O)[C@@H](NC(=O)[C@H](CO)NC(=O)[C@H](Cc1ccc(O)cc1)NC(=O)[C@H](CC(=O)O)NC(=O)[C@H](CO)NC(=O)[C@@H](NC(=O)[C@H](Cc1ccccc1)NC(=O)[C@@H](NC(=O)CNC(=O)[C@H](CCC(=O)O)NC(=O)C(C)(C)NC(=O)[C@@H](N)Cc1ccc(O)cc1)[C@@H](C)O)[C@@H](C)O)[C@@H](C)CC)C(=O)N[C@@H](CCC(=O)O)C(=O)N[C@@H](Cc1ccc(O)cc1)C(=O)N[C@@H](CC(C)C)C(=O)N[C@@H](CC(C)C)C(=O)N[C@@H](CCC(=O)O)C(=O)NCC(=O)NCC(=O)N1CCC[C@H]1C(=O)N[C@@H](CO)C(=O)N[C@@H](CO)C(=O)NCC(=O)N[C@@H](C)C(=O)N1CCC[C@H]1C(=O)N1CCC[C@H]1C(=O)N1CCC[C@H]1C(=O)N[C@@H](CO)C(N)=O
B16: Example 54 (peptide)
peptide: H[Aib]EGTFTSDYSI[αMeL]LDKK([AEEA-AEEA-γGlu-C20 diacid])AQHAFIEYLIEGGPSSGAPPPS-NH2
modifications: N-terminus assumed
SMILES: CC[C@H](C)[C@H](NC(=O)[C@H](CC(C)C)NC(=O)[C@H](Cc1ccc(O)cc1)NC(=O)[C@H](CCC(=O)O)NC(=O)[C@@H](NC(=O)[C@H](Cc1ccccc1)NC(=O)[C@H](C)NC(=O)[C@H](Cc1c[nH]cn1)NC(=O)[C@H](CCC(N)=O)NC(=O)[C@H](C)NC(=O)[C@H](CCCCNC(=O)COCCOCCNC(=O)COCCOCCNC(=O)CC[C@H](NC(=O)CCCCCCCCCCCCCCCCCCC(=O)O)C(=O)O)NC(=O)[C@H](CCCCN)NC(=O)[C@H](CC(=O)O)NC(=O)[C@H](CC(C)C)NC(=O)[C@](C)(CC(C)C)NC(=O)[C@@H](NC(=O)[C@H](CO)NC(=O)[C@H](Cc1ccc(O)cc1)NC(=O)[C@H](CC(=O)O)NC(=O)[C@H](CO)NC(=O)[C@@H](NC(=O)[C@H](Cc1ccccc1)NC(=O)[C@@H](NC(=O)CNC(=O)[C@H](CCC(=O)O)NC(=O)C(C)(C)NC(=O)[C@@H](N)Cc1c[nH]cn1)[C@@H](C)O)[C@@H](C)O)[C@@H](C)CC)[C@@H](C)CC)C(=O)N[C@@H](CCC(=O)O)C(=O)NCC(=O)NCC(=O)N1CCC[C@H]1C(=O)N[C@@H](CO)C(=O)N[C@@H](CO)C(=O)NCC(=O)N[C@@H](C)C(=O)N1CCC[C@H]1C(=O)N1CCC[C@H]1C(=O)N1CCC[C@H]1C(=O)N[C@@H](CO)C(N)=O
B17: Example 62 (peptide)
peptide: YXEGTFTSDYSIXLDKKAQXAFIEYLIEGG
modifications: Aib2; αMeL13; K17((2-[2-(2-Amino-ethoxy)-ethoxy]-acetyl)2-(γ-Glu)-CO-(CH2)18-CO2H); Aib20; C-terminal NH2
B18: Example 63 (peptide)
peptide: YXEGTFTSDYSIXLDEKAQXAFIEYLIEGG
modifications: Aib2; αMeL13; K17((2-[2-(2-Amino-ethoxy)-ethoxy]-acetyl)2-(γ-Glu)-CO-(CH2)18-CO2H); Aib20; C-terminal NH2
B19: Example 64 (peptide)
peptide: YXEGTFTSDYSIXLDSKAQXAFIEYLIEGG
modifications: Aib2; αMeL13; K17((2-[2-(2-Amino-ethoxy)-ethoxy]-acetyl)2-(γ-Glu)-CO-(CH2)18-CO2H); Aib20; C-terminal NH2
B20: Example 65 (peptide)
peptide: YXEGTFTSDYSIXLDTKAQXAFIEYLIEGG
modifications: Aib2; αMeL13; K17((2-[2-(2-Amino-ethoxy)-ethoxy]-acetyl)2-(γ-Glu)-CO-(CH2)18-CO2H); Aib20; C-terminal NH2
B21: Example 51 (peptide)
peptide: Y[Aib]EGTFTSDYSILLDKK([AEEA-AEEA-γGlu-C20 diacid])AQ[Aib]AFIEYLIEGG-NH2
modifications: N-terminus assumed
SMILES: CC[C@H](C)[C@H](NC(=O)[C@H](CC(C)C)NC(=O)[C@H](Cc1ccc(O)cc1)NC(=O)[C@H](CCC(=O)O)NC(=O)[C@@H](NC(=O)[C@H](Cc1ccccc1)NC(=O)[C@H](C)NC(=O)C(C)(C)NC(=O)[C@H](CCC(N)=O)NC(=O)[C@H](C)NC(=O)[C@H](CCCCNC(=O)COCCOCCNC(=O)COCCOCCNC(=O)CC[C@H](NC(=O)CCCCCCCCCCCCCCCCCCC(=O)O)C(=O)O)NC(=O)[C@H](CCCCN)NC(=O)[C@H](CC(=O)O)NC(=O)[C@H](CC(C)C)NC(=O)[C@H](CC(C)C)NC(=O)[C@@H](NC(=O)[C@H](CO)NC(=O)[C@H](Cc1ccc(O)cc1)NC(=O)[C@H](CC(=O)O)NC(=O)[C@H](CO)NC(=O)[C@@H](NC(=O)[C@H](Cc1ccccc1)NC(=O)[C@@H](NC(=O)CNC(=O)[C@H](CCC(=O)O)NC(=O)C(C)(C)NC(=O)[C@@H](N)Cc1ccc(O)cc1)[C@@H](C)O)[C@@H](C)O)[C@@H](C)CC)[C@@H](C)CC)C(=O)N[C@@H](CCC(=O)O)C(=O)NCC(=O)NCC(N)=O

Legend:
[1] = target: T2, human GLP-1 receptor (human, UniProt P43220 24-463); assay: SPA, [125I]-GLP-1 displacement, hGLP-1R membranes
T2 construct: whole, on cells; Used as crude membranes of stably transfected HEK293 cells; also called hGLP1R; hGLP-1R

[2] = target: T3, human glucagon receptor (human, UniProt P47871 26-477); assay: SPA, [125I]-Gcg displacement, hGcgR membranes
T3 construct: whole, on cells; Used as crude membranes of stably transfected HEK293 cells; also called hGcgR; hGLcgR

[3] = target: T1, human GIP receptor; assay: SPA, [125I]-GIP displacement, hGIPR membranes

T3 sequence (P47871 26-477): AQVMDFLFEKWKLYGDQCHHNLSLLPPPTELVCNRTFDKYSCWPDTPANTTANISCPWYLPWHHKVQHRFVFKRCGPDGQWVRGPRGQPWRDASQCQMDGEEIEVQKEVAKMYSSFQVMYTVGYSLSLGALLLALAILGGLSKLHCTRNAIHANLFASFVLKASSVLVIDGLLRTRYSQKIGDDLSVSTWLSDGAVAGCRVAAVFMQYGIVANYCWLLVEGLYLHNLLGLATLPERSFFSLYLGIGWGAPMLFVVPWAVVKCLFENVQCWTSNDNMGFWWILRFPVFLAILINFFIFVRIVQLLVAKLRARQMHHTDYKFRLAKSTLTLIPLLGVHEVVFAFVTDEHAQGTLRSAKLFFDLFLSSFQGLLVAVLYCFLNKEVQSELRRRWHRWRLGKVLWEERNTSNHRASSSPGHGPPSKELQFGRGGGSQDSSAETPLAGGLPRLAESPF

Binder	Ki [1] [nM]	Ki [2] [nM]	Ki [3] [nM]
B1	8.2	292	0.136
B2	1.58	99.2	0.0243
B3	10.2	270	0.061
B4	3	26.1	0.0583
B5	3.43	9.89	0.0302
B6	2.23	242	0.0458
B7	9.55	237	0.0655
B8	1.88	433	0.0625
B9	1	14.9	0.0278
B10	3.3	228	0.0849
B11	1.86	43.6	0.126
B12	11.1	110	0.102
B13	7.53	93.7	0.106
B14	1.23	216	0.188
B15	14.5	149	0.529
B16	1.66	333	0.965
B17	2.03	168	0.0545
B18	7.79	273	0.141
B19	4.86	260	0.0866
B20	4.53	194	0.0643
B21	5.62	195	0.062
